Data from article PMC5577222.

Key:
[1] = target: microtubules polymerized from porcine brain tubulin (taxol-stabilized) (porcine) (UniProt P02550); assay: single-molecule TIRF microscopy; rhodamine-labelled taxol-stabilized microtubules held on the surface by anti-beta-tubulin; eGFP-DRG1 at 0.08, 0.4, 4, 40 nM in BRB80 assay buffer with 1 mM GTP, 25 °C; residence times from kymographs, not corrected for bleaching
[2] = target: microtubules polymerized from porcine brain tubulin (taxol-stabilized) (porcine) (UniProt P02550); assay: co-sedimentation; 1 µM recombinant DRG1 with different concentrations of taxol-stabilized microtubules; Coomassie quantified with ImageJ, binding curve fitted

B1: eGFP-DRG1 (Xenopus laevis DRG1 with N-terminal eGFP) (natural protein)
chain: MSGTLARIAEIEAEMARTQKNKATAYHLGLLKARLAKLRRELITPKGGGGGGPGEGFDVAKTGDARIGFVGFPSVGKSTLLSNLAGVYSEVAAYEFTTLTTVPGVVRYKGAKIQLLDLPGIIEGAKDGKGRGRQVIAVARTCNLILIVLDVLKPLGHKKIIENELEGFGIRLNKQPPNIGFKKKDKGGINLTATCAQSELDNDTVKSILAEYKIHNADITLRSDATADDLIDVVEGNRVYIPCIYVLNKIDQISIEELDIIYKVPHCVPISAHHRWNFDDLLEKIWDYLQLVRIYTKPKGQLPDYTSPVVLPCSHTAAEDFCTKIHKNLIKEFKYALVWGSSVKHNPQKVGKDHVLEDEDVIQIVKK
residence time, diffusive population, 4 nM eGFP-DRG1 [1]: 2.2 s
residence time, diffusive population, 40 nM eGFP-DRG1 [1]: 2.6 s
residence time, immobile fraction, 0.08 nM eGFP-DRG1 [1]: 12 s
residence time, immobile fraction, 0.4 nM eGFP-DRG1 [1]: 12.4 s
residence time, immobile fraction, 4 nM eGFP-DRG1 [1]: 11.1 s
residence time, immobile fraction, 40 nM eGFP-DRG1 [1]: 5.4 s

B2: recombinant Xenopus laevis Developmentally regulated GTP binding protein 1 (DRG1), full length (natural protein)
chain: MSGTLARIAEIEAEMARTQKNKATAYHLGLLKARLAKLRRELITPKGGGGGGPGEGFDVAKTGDARIGFVGFPSVGKSTLLSNLAGVYSEVAAYEFTTLTTVPGVVRYKGAKIQLLDLPGIIEGAKDGKGRGRQVIAVARTCNLILIVLDVLKPLGHKKIIENELEGFGIRLNKQPPNIGFKKKDKGGINLTATCAQSELDNDTVKSILAEYKIHNADITLRSDATADDLIDVVEGNRVYIPCIYVLNKIDQISIEELDIIYKVPHCVPISAHHRWNFDDLLEKIWDYLQLVRIYTKPKGQLPDYTSPVVLPCSHTAAEDFCTKIHKNLIKEFKYALVWGSSVKHNPQKVGKDHVLEDEDVIQIVKK
Kd [2]: 470 nM
